The supplement of paper PMC9112550, “Optimization of the antimicrobial peptide Bac7 by deep mutational scanning” (BMC Biology, 2022)

system: Escherichia coli TOP10; experiment: shrunken log2 fold change of peptide-encoding DNA abundance (4.5 h post-induction vs induction); higher = less antimicrobial activity (less host growth inhibition); details: time post-induction: 4.5 h; library: site-saturation at positions 5, 18, 19, 20
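Note: peptides expressed intracellularly from a pBAD plasmid library in pooled LB shake-flask culture, induced with 0.3% L-arabinose, DNA abundance read by NGS, three biological replicates, DESeq2 with apeglm shrinkage.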

Sequence | shrunken log2 fold change
RRIRFRPPRLPRPRPRPGWTPRP | -0.115
RRIRYRPPRLPRPRPRPYHAPRP | -0.194
RRIRSRPPRLPRPRPRPEQYPRP | -0.256
RRIRQRPPRLPRPRPRPSMMPRP | -0.565
RRIRPRPPRLPRPRPRPPGLPRP | 0.268
RRIRSRPPRLPRPRPRPVIGPRP | 0.0912
RRIRTRPPRLPRPRPRPQCPPRP | -0.125
RRIRARPPRLPRPRPRPYGWPRP | 0.0617
RRIRRRPPRLPRPRPRPGVVPRP | 0.281
RRIRKRPPRLPRPRPRPHCAPRP | -0.00229
RRIRARPPRLPRPRPRPIKSPRP | 0.226
RRIRYRPPRLPRPRPRPHPPPRP | 0.374
RRIRKRPPRLPRPRPRPSWLPRP | 0.303
RRIRLRPPRLPRPRPRPWWHPRP | 0.0812
RRIRARPPRLPRPRPRPEVFPRP | 0.401
RRIRSRPPRLPRPRPRPHHTPRP | -0.625
RRIRCRPPRLPRPRPRPLQGPRP | 0.0488
RRIRGRPPRLPRPRPRPWACPRP | 0.216
RRIRERPPRLPRPRPRPCSTPRP | -0.702
RRIRPRPPRLPRPRPRPDILPRP | -0.51
RRIRPRPPRLPRPRPRPIPRPRP | 0.449
RRIRERPPRLPRPRPRPSEEPRP | -0.0988

Sequence | shrunken log2 fold change
RRIRPRPPRLPRPRPRPHHAPRP | -0.125
RRIRRRPPRLPRPRPRPINNPRP | -0.407
RRIRKRPPRLPRPRPRPMQGPRP | -0.00992
RRIRRRPPRLPRPRPRPDRQPRP | -0.114
RRIRLRPPRLPRPRPRPIWSPRP | -0.256
RRIRHRPPRLPRPRPRPDKVPRP | 0.1
RRIRCRPPRLPRPRPRPGTVPRP | -0.339
RRIRERPPRLPRPRPRPASFPRP | -0.285
RRIRNRPPRLPRPRPRPVWKPRP | 0.119
RRIRWRPPRLPRPRPRPSPKPRP | 0.403
RRIRNRPPRLPRPRPRPMNPPRP | -0.235
RRIRVRPPRLPRPRPRPLGIPRP | -0.105
RRIRRRPPRLPRPRPRPTSHPRP | 0.321
RRIRERPPRLPRPRPRPFKKPRP | -0.0194
RRIRGRPPRLPRPRPRPQHIPRP | -0.281
RRIRSRPPRLPRPRPRPQARPRP | 0.122
RRIRFRPPRLPRPRPRPEQGPRP | 0.313
RRIRWRPPRLPRPRPRPGKFPRP | 0.26
RRIRFRPPRLPRPRPRPNHHPRP | -1.02
RRIRDRPPRLPRPRPRPAFPPRP | -0.0705
RRIRLRPPRLPRPRPRPMQVPRP | -0.0149
RRIRWRPPRLPRPRPRPMIQPRP | -0.000914

Sequence | shrunken log2 fold change
RRIRCRPPRLPRPRPRPDVPPRP | -0.0242
RRIRHRPPRLPRPRPRPCITPRP | -0.472
RRIRYRPPRLPRPRPRPKHGPRP | -0.413
RRIRMRPPRLPRPRPRPHPQPRP | 0.427
RRIRTRPPRLPRPRPRPLDVPRP | -0.594
RRIRMRPPRLPRPRPRPYNYPRP | -0.2
RRIRWRPPRLPRPRPRPLWRPRP | 3.71
RRIRPRPPRLPRPRPRPMWKPRP | -0.146
RRIRNRPPRLPRPRPRPQELPRP | -0.14
RRIRTRPPRLPRPRPRPSWRPRP | 0.153
RRIRFRPPRLPRPRPRPQVIPRP | -0.364
RRIRIRPPRLPRPRPRPSWHPRP | -0.707
RRIRIRPPRLPRPRPRPYTQPRP | -1.02
RRIRSRPPRLPRPRPRPTPMPRP | 0.61
RRIRARPPRLPRPRPRPIQGPRP | 0.0518
RRIRSRPPRLPRPRPRPTTHPRP | 0.0655
RRIRPRPPRLPRPRPRPRGQPRP | 0.204
RRIRLRPPRLPRPRPRPEACPRP | -0.0158
RRIRNRPPRLPRPRPRPSNQPRP | -0.299
RRIRSRPPRLPRPRPRPLTCPRP | -0.114
RRIRERPPRLPRPRPRPICFPRP | -0.221
RRIRSRPPRLPRPRPRPTSAPRP | 0.321

Sequence | shrunken log2 fold change
RRIRRRPPRLPRPRPRPIFWPRP | 0.821
RRIRERPPRLPRPRPRPWQLPRP | -0.072
RRIRCRPPRLPRPRPRPPYCPRP | -0.365
RRIRHRPPRLPRPRPRPADTPRP | -0.406
RRIRLRPPRLPRPRPRPARRPRP | 0.348
RRIRVRPPRLPRPRPRPARVPRP | 0.263
RRIRFRPPRLPRPRPRPMREPRP | 1.08
RRIRLRPPRLPRPRPRPAGKPRP | -0.132
RRIRWRPPRLPRPRPRPLSWPRP | 0.0993
RRIRLRPPRLPRPRPRPKWTPRP | 0.0422
RRIRCRPPRLPRPRPRPWWKPRP | -0.334
RRIRERPPRLPRPRPRPAIEPRP | -0.136
RRIRRRPPRLPRPRPRPEQSPRP | 0.353
RRIRLRPPRLPRPRPRPCMGPRP | -0.085
RRIRGRPPRLPRPRPRPNWWPRP | 3.32
RRIRVRPPRLPRPRPRPNERPRP | 0.0435
RRIRCRPPRLPRPRPRPEFFPRP | -0.127
RRIRNRPPRLPRPRPRPQGVPRP | 0.0991
RRIRNRPPRLPRPRPRPYCAPRP | -1.05
RRIRHRPPRLPRPRPRPCVVPRP | 0.000418
RRIRGRPPRLPRPRPRPTKGPRP | 0.2
RRIRRRPPRLPRPRPRPAFWPRP | 0.547

Sequence | shrunken log2 fold change
RRIRIRPPRLPRPRPRPFNSPRP | -0.384
RRIRYRPPRLPRPRPRPSKSPRP | -0.257
RRIRSRPPRLPRPRPRPKESPRP | 0.284
RRIRERPPRLPRPRPRPDPMPRP | -0.0562
RRIRDRPPRLPRPRPRPSQDPRP | -0.0683
RRIRTRPPRLPRPRPRPSWWPRP | 0.125
RRIRVRPPRLPRPRPRPYKMPRP | -0.428
RRIRARPPRLPRPRPRPKFGPRP | 0.581
RRIRFRPPRLPRPRPRPVMDPRP | -0.378
RRIRKRPPRLPRPRPRPAQGPRP | 1.39
RRIRARPPRLPRPRPRPCKSPRP | 0.0355
RRIRHRPPRLPRPRPRPSWEPRP | -0.0671
RRIRGRPPRLPRPRPRPDCSPRP | 0.798
RRIRWRPPRLPRPRPRPDKLPRP | 0.161
RRIRWRPPRLPRPRPRPKIEPRP | -0.0252
RRIRNRPPRLPRPRPRPKQRPRP | 0.432
RRIRSRPPRLPRPRPRPRETPRP | 0.124
RRIRLRPPRLPRPRPRPLYYPRP | -0.274
RRIRVRPPRLPRPRPRPFYWPRP | -0.103
RRIRVRPPRLPRPRPRPGTLPRP | -0.174
RRIRVRPPRLPRPRPRPEDQPRP | 0.0356
